{"source": "the DeepSol protein solubility set", "data": [{"test": "soluble on expression in E. coli; label from the status in PepcDB or PDB records", "values": [{"sequence": "MGSDKIHHHHHHMTAVKHAFTELPTIDIRDLAGDDLARRQAVADAIGRAAREVGFFYITGHGIDPALIAGVREAAKQIFALPMEEKMNYYIGHSKSHKGYVPEGEEIYGSGKPDHKEAFDIGFQAADDHPLVLAGTPLIGANEWPDLPDFRARVLAYYDAVFALGHRLFDAFALALGLPEGYFKPMVTCPPAKLRLIHYPFDASVEDVPGIGAHTDYECFTLLLADQPGLEVLNEESVWIDAPPVKNAAGEEAFVINIGDMLEVLSAGTFVATAHRVRKVPQERYSFPLFFACDYHTLIRPLPTFLAAGEAGEYQELSIGEHMWSQALQTYRYLREKVNRGELQLPERARGTNTFGHLKKQAQQKNP", "soluble on expression in E. coli": "not soluble"}, {"sequence": "GSHMQGQSPIKDQEMKELIRRSQEGDQEARDEIIEKNMRLVWSVVQRFLNRGYEADDLFQIGCIGLLKSVDKFDLSYDVKFSTYAVPMIIGEIQRFLRDDGTVKVSRSLKEMGNKIRKAKDELSKTRGRAPTVTEIADHLGISPEDVVLAQEAVRLPTSIHETVYENDGDPITLLDQIADADEASWFDKIALKKAIEELDERERLIVYLRYYKDQTQSEVASRLGISQVQMSRLEKKILQHIK", "soluble on expression in E. coli": "soluble"}, {"sequence": "MSLDSWNVLIADDEIIIREGIRDAINWSELQLTVVAEAEDGEEALELALEHQVDILLADLNMPIMNGLTLIKQLRTALPHCKVIIITGHDEFVYAQEAIRLSVVDYIIKPVDADQLYEVLKKVCIELTEGQNRKREETFTAKQLEKNITLLREQFCSNWVMGALTNEEVAEQLSFLQLPDTLPSFIGVIRCLNRLHLVGEGHHHHHH", "soluble on expression in E. coli": "soluble"}, {"sequence": "MRGEVKKIIEAIGDIFIGHEDVIRKVLAVALVNGNILFEDYPGLGKTLLAKAFAKILGLKFKRIQFTPDLLPADIIGTKVWKPEKGAFEVVKGPIFTNILLADEINRAPPKTQSALLEAMEERQVTIEGETFKLERPFFIIATQNPLELEGTYPLPEAQLDRFLVRLNIGYPRNEEDELEILKARLRWGKDDPTSDISPIISREDFIRMQEEVERGVIIHDDILRYIVRLVRRIREDERIEAGPSPRGGLALMKLAKANAFIEGRSYVIPDDVKYFAVEALAHRIVLKPEYSLERGIAEEIIREVLEEVPVPKDIRY", "soluble on expression in E. coli": "soluble"}, {"sequence": "MSKKIKVGIVGATGYTGVELLRLLAAHPDVEVAAVTSRSEAGTAVADYFPSLRGVYGLAFQTPDEAGLEQCDIVFFATPNGIAMKDAPRLIEQGVRVIDLSADFRIRDIPTWEHWYGMTHAAPDLVSQAVYGLSELNREAVAQARLVANPGCYPTCVSLPLVPLLRQCRLKPGMPLIADCKSGVSGAGRKGNVGSLLCEAGDNFKAYGIAGHRHLPEIRQTIAGLQDGIAEGFVFTPHLAPMIRGMHATVYLHLSDGSDPETVLRDYYRDSPFVDILPTGSAPETRSVRGANLCRISIQQAAQSDVWVVLSVIDNLVKGAAGQAVQNMNIMFGLEETHGLDAIPLLP", "soluble on expression in E. coli": "not soluble"}, {"sequence": "MARESVKILQGKLDVESLISQLNAALSEEWLAYYQYWVGALVVEGAMRADVQGEFEEHAEEERRHAQLLADRIIELEGVPVLDPKKWFELARCKYDAPQGFDSVSLLKDNVASERCAILRYQEIADFTNGKDFTTCDIAKHILAEEEEHEQDLQDYLTDIARMKKSFLDK", "soluble on expression in E. coli": "not soluble"}, {"sequence": "MKKVSIIIPFKGQTEAELMLPLSSIYNQIGVDLSQLDIHLVNDGGKTIDLSKFDVLADRLEIHYHEIPNGGPGVARQYGIDNSISEYIMFIDADDVLYYVGALWPFYNASNQGHQMIRASYWEQIAGNPYTYTVHGNGDRKAAYGKWYKRSYIEMLGLRFMPDLPIYEDTYFVGLACELATDTCFLEEKVYMWLANPNSITRTVENKFNYQAHIYARENRYWFEMIRKWKPECLEHHHHHH", "soluble on expression in E. coli": "soluble"}, {"sequence": "MTSSPARNGDISFWYADIGGVPQPRPPLAGDARADVCIVGAGYTGLWTALYLKEQAPELEVLVLEKEFAGFGASGRNGGWLTGSFAWTHDRYLSTGTAEGVRAMVTAMSGTVDEVIRVAEAEGIDADIHRTDELMVAVTPAQRARAEAEVRHRQSWGEERVSFLEADAVARRIRIPKAEGAMVVGGVARVQPAKLVRGLAEAAERRGVRIAEGTEVLGIAPGRVETRRGTVQAPIILRATEGFTATLPGAKRDWLPLNSAQIVTEPLPPEIWDRIGWEGAEILGDMANAYCYCQRTREGRIAVGARGRAYRMASRIDERGEADAVTVAHLLKRLQRHFPAAADARIDHSWCGVLGVPRDWCATVGLDPTTGIGWAGGYVGVGVSTSNLAGRTLADLALKRDTALTRLPWVNRRVRRWEPEPLRWLGVRGMYRLLEAADRREEAGGPPSWLAALGHRIAGRLEHHHHHH", "soluble on expression in E. coli": "not soluble"}]}]}
